How the values were obtained:
[1] = substrate: O=C(Cc1cccs1)N[C@@H]1C(=O)N2C(C(=O)[O-])=C(C[n+]3ccccc3)CS[C@H]12; experiment: (§1) Ratio of Kcat to Km of Staphylococcus aureus betalactamase PC1 assessed as drug hydrolysis by spectrophotometry
[2] = substrate: CC(C)(O/N=C(\C(=O)N[C@@H]1C(=O)N2C(C(=O)[O-])=C(C[n+]3ccccc3)CS[C@H]12)c1csc(N)n1)C(=O)O; experiment: as §1
[3] = substrate: CO/N=C(\C(=O)N[C@@H]1C(=O)N2C(C(=O)[O-])=C(C[N+]3(C)CCCC3)CS[C@H]12)c1csc(N)n1; experiment: as §1
[4] = substrate: Nc1nc(/C(=N/O)C(=O)N[C@@H]2C(=O)N3C(C(=O)O)=C(/C=C4\CCN([C@@H]5CCNC5)C4=O)CS[C@H]23)ns1; experiment: as §1
[5] = substrate: CC1(C)S[C@@H]2[C@H](NC(=O)Cc3ccccc3)C(=O)N2[C@H]1C(=O)O; experiment: as §1
[6] = substrate: O=C(Cc1cccs1)N[C@@H]1C(=O)N2C(C(=O)[O-])=C(C[n+]3ccccc3)CS[C@H]12; experiment: (§2) Activity of Staphylococcus aureus betalactamase PC1 assessed as drug hydrolysis by spectrophotometry
[7] = substrate: CC(C)(O/N=C(\C(=O)N[C@@H]1C(=O)N2C(C(=O)[O-])=C(C[n+]3ccccc3)CS[C@H]12)c1csc(N)n1)C(=O)O; experiment: as §2
[8] = substrate: CO/N=C(\C(=O)N[C@@H]1C(=O)N2C(C(=O)[O-])=C(C[N+]3(C)CCCC3)CS[C@H]12)c1csc(N)n1; experiment: as §2
[9] = substrate: Nc1nc(/C(=N/O)C(=O)N[C@@H]2C(=O)N3C(C(=O)O)=C(/C=C4\CCN([C@@H]5CCNC5)C4=O)CS[C@H]23)ns1; experiment: as §2
[10] = substrate: CC1(C)S[C@@H]2[C@H](NC(=O)Cc3ccccc3)C(=O)N2[C@H]1C(=O)O; experiment: as §2

B1: Beta-lactamase (Staphylococcus aureus), P00807 (protein)
chain: MKKLIFLIVIALVLSACNSNSSHAKELNDLEKKYNAHIGVYALDTKSGKEVKFNSDKRFAYASTSKAINSAILLEQVPYNKLNKKVHINKDDIVAYSPILEKYVGKDITLKALIEASMTYSDNTANNKIIKEIGGIKKVKQRLKELGDKVTNPVRYEIELNYYSPKSKKDTSTPAAFGKTLNKLIANGKLSKENKKFLLDLMLNNKSGDTLIKDGVPKDYKVADKSGQAITYASRNDVAFVYPKGQSEPIVLVIFTNKDNKSDKPNDKLISETAKSVMKEF
[1]
  kcat/Km: 1300 M⁻¹ s⁻¹
[2]
  kcat/Km: 12 M⁻¹ s⁻¹
[3]
  kcat/Km: 33 M⁻¹ s⁻¹
[4]
  kcat/Km: 310 M⁻¹ s⁻¹
[5]
  kcat/Km: 1.9e+07 M⁻¹ s⁻¹
[6]
  Km: 110 µM
  kcat: 0.14 s⁻¹
[7]
  Km: 29 µM
  kcat: 0.00035 s⁻¹
[8]
  Km: 61 µM
  kcat: 0.002 s⁻¹
[9]
  Km: 78 µM
  kcat: 0.024 s⁻¹
[10]
  Km: 3.4 µM
  kcat: 65 s⁻¹

From ChEMBL document CHEMBL1143427, “Interactions of ceftobiprole with beta-lactamases from molecular classes A to D” (Antimicrob Agents Chemother, 2007)
